Measurements: the supplement of paper PMC9170038

Test system: MS2 coat protein
Assay: apparent KD of MS2 coat protein; designed switch direction (-1 OFF switch, 1 ON switch): 1; higher = weaker reporter binding
Method in brief: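 An oligonucleotide input, 200 uM small-molecule ligand, or no input was present during titration of SNAP-549-labelled MS2 coat protein, which was doubled from 0.7 or 1.5 nM to 3 µM. Designed RNA switches had been transcribed on Illumina chips by stalled E. coli RNA polymerase. Apparent KD per design is the median over clusters of curves fitted to normalised cluster fluorescence.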

[1] = input ligand: microRNA oligo, concentration not stated
[2] = Eterna round: R95, input ligand: FMN 200 uM
[3] = Eterna round: R95, input ligand: microRNA oligo, concentration not stated
[4] = Eterna round: R95, input ligand: none

Row | Sequence | apparent KD of MS2 coat protein (input ligand: FMN 200 uM) [nM] | apparent KD of MS2 coat protein [1] [nM] | apparent KD of MS2 coat protein (input ligand: none) [nM] | apparent KD of MS2 coat protein [2] [nM] | apparent KD of MS2 coat protein [3] [nM] | apparent KD of MS2 coat protein [4] [nM]
1 | GCCAUCGCAUGAGGAUAUGGCACCGAAACGGUGCCAGAAGGCAUGUCGAAUGACAUGAGGAUCACCCAUGUAGUAUAGAUGGCA [Mat - Same State NG 1 - JL mod - D92] (Eterna round: R96, puzzle: Same State NG 1) | 52.9 | 571 | 628 |  |  | 
2 | CUGAAAUGUCAAGGAUAUCACGUCGAUUAGACGUGAGAAGGUGAUCUGCACAUGAGGAUCACCCAUGUGUUACAUGGAAAUCAG [Brourd's SSNG1/1-A2 mod 14] (Eterna round: R96, puzzle: Same State NG 1) | 312 | 581 | 964 |  |  | 
3 | UUUCUUCUCGUAGGAUAUGUAGGAUAUGCCUACAUGAGGAUCACCCAUGUUCGCAUGGCAGAAGGACAGAAGGACGAUCACCCU [pwkr ssNG2 2FMN + 1F5.9] (Eterna round: R96, puzzle: Same State NG 2) | 55.4 | 234 | 502 |  |  | 
4 | AGUCCAGCCUGAGCUGGACUGAAGCAUGUACAUGAGGAUCACCCAUGUUCAUGUACAGGCUUUUUGCUCGUCUUAUG [JL-shm-2.02 JL mod] (Eterna round: R96, puzzle: Sensor for hsa-mir-208a) | 619 | 14.6 | 676 |  |  | 
5 | UAUGACUUACAAGGAUAUUAAUGACAUGAGGAUCACCCAUGUGGCUGUGUGUGUUAGAUAAGCUUUAAGAAGGUGUGCGUGUCU [JR_SSNG2_Sub096] (Eterna round: R96, puzzle: Same State NG 2) | 361 | 288 | 386 |  |  | 
6 | GCUCGACGUACGGCCUACAUGAGGAUCACCCAUGUGACUGGGCAGGAUAUCUAAAUGCAGAAUGUAGAGAAGGGCCCGUCGAGC [SameState NG3 #50] (Eterna round: R96, puzzle: Same State NG 3) | 323 | 35.9 | 384 |  |  | 
7 | GUUAGGAAUCUAGCAUACAUGAGGAUCACCCAUGUAAGUGGGAAGGAUAUGGUACAGAAACUGUACCAGAAGGUCUUAUUAAUU [Omei SS(NG) 3 A] (Eterna round: R96, puzzle: Same State NG 3) | 65.3 | 80.4 | 63.1 |  |  | 
8 | ACAUGAGAGAUAGGAUAUCUUGUACCUACAUGUGACAUGAGGAUCACCCAUGUGGUAAGUAUGAGGGAGAAGGAUCAGAUAUGU [Equivalence 42 - Jieux - Same State NG 2] (Eterna round: R96, puzzle: Same State NG 2) | 29.6 | 26.4 | 45.2 |  |  | 
9 | CUGAGCAAUCGAGGAUAUCACGUCGAUUAGACGUGAGAAGGCGAUCAUAACAUGAGGAUCACCCAUGUAUUACAUGAAGCUCAG [SSNG1/4-A2] (Eterna round: R96, puzzle: Same State NG 1) | 15.3 | 12.9 | 20.3 |  |  | 
10 | GUGGUCAGACAUGAGGAUCACCCAUGUGGAAUAAAUAAGGACUAGGAUAUGUAAUAUAGGAUAUAACAGAAGGAGUGGUUGGUG (Eterna round: R96, puzzle: Same State NG 3) | 66.8 | 42.1 | 60.2 |  |  | 
11 | ACAUGAAAUUCAGGAUAUUUUGUACCUACAUGUGACAUGAGGAUCACCCAUGUGGUAAGUAUAAGAGAGAAGGGAAAGAUAUGU [Equivalence 5 - Jieux - Same State NG 2] (Eterna round: R96, puzzle: Same State NG 2) | 29.1 | 29.9 | 38.5 |  |  | 
12 | UGUUGUUACGCAGGAUAUGGUCACAUGAGGAUCACCCAUGUAUUGUCGAUGCUAUGUGGAUUUGAUCAGAAGGGCGGGUUAACA [SameState NG2 #100] (Eterna round: R96, puzzle: Same State NG 2) | 63.8 | 88.9 | 103 |  |  | 
13 | UGAAUGGUGAUAGGAUAUACAUGAGGAAUCCUCGUAGAAGGAUCAUGACAUGAGGAUCACCCAUGUAGCGCUCCGUAGAGCGCA [JL SSNG1 1.21] (Eterna round: R96, puzzle: Same State NG 1) | 53 | 19.7 | 154 |  |  | 
14 | UCUUGGUUUUUGCUCGUUUUUUGUGUUGAACAUGAGGAUCACCCAUGUAUUGUACAGUCCAAUUUGAUAAUGGUCCG [JMF 54] (Eterna round: R96, puzzle: Sensor for hsa-mir-208a) | 50.2 | 28.1 | 55.1 |  |  | 
15 | CAGCUCGUGUGAGGAUAUGCCGCCGUUUCGGCUGCAGAAGGUGCUACGUUACAUGAGGAUCACCCAUGUCUCUGUUGUUUCGUC [salish99_SSNG1_r04_962] (Eterna round: R96, puzzle: Same State NG 1) | 28.6 | 19.1 | 31.8 |  |  | 
16 | AUAAGUUUGAUGCUCGUCUCUCCGUACAAACAUGAGGAUCACCCAUGUGGUCGGGAAGUAGCCCGGCCAGUAUGACC [Rigebelain] (puzzle: Sensor for hsa-mir-208a) |  |  |  | 32.7 | 24.4 | 35.2
17 | GGAGAACAUGAGGAUCACCCAUGUAAGAGAGUUGUAGGAUAUGUGAGGAGCAGAGGAUGAACAGAAGGACAUGGAG [JR_SS!_Sub070] (puzzle: Same State 1) |  |  |  | 42 | 49.3 | 56.4
18 | GGAGCCGGCCUAGGAUAUUUCAUAAUAAAACAUGAGGAUCACCCAUGUAGGCCAGAAGGCCUUGGGAAGAAGGAGGUCGGCUCC [Loop Effect - U26] (Eterna round: R96, puzzle: Same State NG 2) | 12.1 | 30.2 | 47 |  |  | 
19 | UUCCCAUCGGGAGGAUAUGGAACCUUAUUGGUUCUAGAAGGUCCAACAUGAGGAUCACCCAUGUGGGAGUGGUCUAAUGACCAC [SS NG10LRO02] (Eterna round: R96, puzzle: Same State NG 1) | 117 | 141 | 159 |  |  | 
20 | GGAGGACAUGAGGAUCACCCAUGUGGAUGGGCGCUAGGAUAUGCGAGAGGGUGGAGAGAAGCAGAAGGAGUGGAUA [JR_SS1_Sub038] (puzzle: Same State 1) |  |  |  | 76.7 | 62.9 | 75
21 | AAUAAUUUACAUGAGGAUCACCCAUGUGGUAAACAUGCUUUUUGCUCGUCUUAUGGUUUUUUUUUUUUUUUUUUUUU [viviankchen1] (puzzle: Sensor for hsa-mir-208a version 2) |  |  |  | 91 | 49.6 | 130
22 | GAGUAGUUGGGAGGAUAUGCAUUGUUAUUAAAUGCAGAAGGUUUUAACAUGAGGAUCACCCAUGUAGGACUAUUCCUGUGUAUC [Parity 70 - Jieux - Same State NG 1] (Eterna round: R96, puzzle: Same State NG 1) | 17.3 | 13.7 | 17.1 |  |  | 
23 | GCUGGCAUGCAAGGAUAUCCUUCCGAGUAGGAAGGAGAAGGUGCUUGUGGGACAUGAGGAUCACCCAUGUAUGUUGGCCACGAC [Inrala] (Eterna round: R96, puzzle: Same State NG 1) |  | 82.1 |  |  |  | 
24 | CGUCGUUUGAUAGGAUAUCGCUUUACAUGAGGAUCACCCGGGUUUACCACGCUGGUUUUUCUUUCCGAGAAGGAUUCUGAUGUU [salish99_SSNG02_r04_028] (Eterna round: R96, puzzle: Same State NG 2) | 117 | 20.7 | 29 |  |  | 
25 | ACGUGGCUGCCGCAGGAUAUACCCUGUUCCACAUGAGGAUCACCCAUGUUUACGAACUAUGAGAGGUAGAAGGGUGGAUGUCAUU [Beenvean] (Eterna round: R96, puzzle: Same State 2) | 12.2 | 18.9 | 30.7 |  |  | 
26 | ACAAGACAUGAGGAUCACCCAUGUAUAAAUUACACAGGAUAUCGGUGGGCCGCGCCUACACGAGAAGGGUGACUUC [Gere] (puzzle: Same State 1) |  |  |  | 77 | 33.4 | 35.5
27 | UGCCUGUCCGAAGGAUAUCUCAGCGAUCUUUUGGGAGAAGGUCGGAUGCAACAUGAGGAUCACCCAUGUGUAUAUAUCGCUGAC [Eternabot solution 48] (Eterna round: R96, puzzle: Same State NG 1) | 17.7 | 13.9 | 20.1 |  |  | 
